The target of assay [1] is NC3 domain of the small collagen XII subunit (190 kD) (chick). Nature of the assay: two-dimensional SDS-PAGE.
The target in assay [2] is collagen XII, small variant (small subunit, 220 kD) (chick). Put plainly: electron microscopy.
For assay [3] the target is unchanged. Nature of the assay: electron microscopy + nonreducing SDS-PAGE.
In assay [4] the target is collagen I from rat tail (rat) (UniProt P02454). Put plainly: co-sedimentation.
Sequence of collagen I from rat tail (rat) (P02454 152-1207, chain 1 of 2): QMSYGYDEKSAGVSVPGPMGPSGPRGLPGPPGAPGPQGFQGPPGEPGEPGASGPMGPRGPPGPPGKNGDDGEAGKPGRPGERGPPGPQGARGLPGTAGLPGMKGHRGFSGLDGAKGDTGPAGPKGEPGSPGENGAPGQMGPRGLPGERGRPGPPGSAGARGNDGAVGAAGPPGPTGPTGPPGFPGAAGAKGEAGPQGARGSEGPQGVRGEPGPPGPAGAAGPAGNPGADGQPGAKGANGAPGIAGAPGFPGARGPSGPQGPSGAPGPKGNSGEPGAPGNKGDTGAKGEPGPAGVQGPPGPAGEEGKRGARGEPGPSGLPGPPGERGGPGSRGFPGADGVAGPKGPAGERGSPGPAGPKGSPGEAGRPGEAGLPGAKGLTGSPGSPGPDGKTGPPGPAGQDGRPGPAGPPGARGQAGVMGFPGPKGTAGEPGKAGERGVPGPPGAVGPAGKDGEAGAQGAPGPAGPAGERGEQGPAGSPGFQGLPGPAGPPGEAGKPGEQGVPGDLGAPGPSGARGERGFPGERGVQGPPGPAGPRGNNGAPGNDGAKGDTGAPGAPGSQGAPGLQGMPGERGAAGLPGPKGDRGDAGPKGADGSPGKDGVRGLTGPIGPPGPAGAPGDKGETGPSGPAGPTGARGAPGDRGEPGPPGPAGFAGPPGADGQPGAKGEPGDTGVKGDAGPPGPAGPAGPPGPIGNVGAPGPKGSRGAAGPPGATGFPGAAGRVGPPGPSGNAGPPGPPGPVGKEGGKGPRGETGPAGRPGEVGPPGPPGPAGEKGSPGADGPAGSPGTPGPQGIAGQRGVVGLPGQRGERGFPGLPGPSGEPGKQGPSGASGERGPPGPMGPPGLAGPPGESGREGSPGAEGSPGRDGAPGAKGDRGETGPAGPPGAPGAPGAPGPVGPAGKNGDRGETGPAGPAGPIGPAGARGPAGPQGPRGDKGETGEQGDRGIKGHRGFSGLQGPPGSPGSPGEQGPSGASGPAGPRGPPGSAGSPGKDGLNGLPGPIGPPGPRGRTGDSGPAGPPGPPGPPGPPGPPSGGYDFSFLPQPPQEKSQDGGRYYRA
Sequence of collagen I from rat tail (rat) (P02466 86-1125, chain 2 of 2, further chain): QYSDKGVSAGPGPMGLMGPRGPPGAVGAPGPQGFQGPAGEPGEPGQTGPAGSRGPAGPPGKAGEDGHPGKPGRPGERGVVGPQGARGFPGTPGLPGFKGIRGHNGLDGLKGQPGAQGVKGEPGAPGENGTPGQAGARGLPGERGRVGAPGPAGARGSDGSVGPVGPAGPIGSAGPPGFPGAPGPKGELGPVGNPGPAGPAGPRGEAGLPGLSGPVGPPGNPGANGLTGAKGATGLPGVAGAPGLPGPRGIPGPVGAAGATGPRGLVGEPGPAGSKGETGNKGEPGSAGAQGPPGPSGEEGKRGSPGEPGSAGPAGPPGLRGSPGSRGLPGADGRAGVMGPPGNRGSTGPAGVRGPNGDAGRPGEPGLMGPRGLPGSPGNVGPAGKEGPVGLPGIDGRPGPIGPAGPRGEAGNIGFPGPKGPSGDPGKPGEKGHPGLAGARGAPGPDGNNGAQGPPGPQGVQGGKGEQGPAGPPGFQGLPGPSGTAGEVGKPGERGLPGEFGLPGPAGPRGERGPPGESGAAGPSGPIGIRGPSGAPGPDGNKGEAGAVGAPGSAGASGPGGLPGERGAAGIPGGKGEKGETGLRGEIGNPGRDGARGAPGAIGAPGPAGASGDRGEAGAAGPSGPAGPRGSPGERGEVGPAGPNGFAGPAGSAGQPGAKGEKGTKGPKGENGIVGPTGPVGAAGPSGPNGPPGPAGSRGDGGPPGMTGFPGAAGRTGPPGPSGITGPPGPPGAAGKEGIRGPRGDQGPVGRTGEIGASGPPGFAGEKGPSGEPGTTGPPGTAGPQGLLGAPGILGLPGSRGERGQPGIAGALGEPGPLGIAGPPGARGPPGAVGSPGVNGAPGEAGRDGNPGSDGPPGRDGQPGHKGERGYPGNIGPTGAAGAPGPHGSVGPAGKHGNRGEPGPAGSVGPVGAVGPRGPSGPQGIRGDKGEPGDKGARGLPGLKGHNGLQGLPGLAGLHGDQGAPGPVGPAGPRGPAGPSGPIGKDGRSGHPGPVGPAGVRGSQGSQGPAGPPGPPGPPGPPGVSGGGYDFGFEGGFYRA

What is called stoichiometry N is a count of units in the complex or per binding partner. In the case of “NC3 domain of the small collagen XII subunit (190 kD) (domain or fragment)”, the stoichiometry N in assay [1] was 3.

Turning to “collagen XII, small variant (small subunit, 220 kD) (natural protein)”, the stoichiometry N in assay [2] and in assay [3] was 3 throughout.

In assay [4], “NC3 domain of the large collagen XII subunit (290 kD), collagenase-treated collagen XII (domain or fragment)” showed a percent of truncated collagen XII in the pellet (90 mM NaCl, 30 mM phosphate) of 20%.

(Values after article PMC2199960.)
